Measurements as given in US20240245805A1 (Orna Therapeutics, Inc., priority 2020, published 2024).

B1: A73-675 (nucleic acid)
DNA: TTACTCCATTCAGCTTCTTCGGAACCTGTTCGGAGGAATTAAACGGGCACCCATACTCCCCCCACCCCCCTTTTGTAACTAAGTATGTGTGCTCGTGATCTTGACTCCCACGGAACGGACCGATCCGTTGGTGAACAAACAGCTAGGTCCACATCCTCCCTTCCCCTGGGAGGGCCCCCGCCCTCCCACATCCTCCCCCCAGCCTGACGTATCACAGGCTGTGTGAAGCCCCCGCGAAAGCTGCTCACGTGGCAATTGTGGGTCCCCCCTTCATCAAGACACCAGGTCTTTCCTCCTTAAGGCTAGCCCCGGCGTGTGAATTCACGTTGGGCAACTAGTGGTGTCACTGTGCGCTCCCAATCTCGGCCGCGGAGTGCTGTTCCCCAAGCCAAACCCCTGGCCCTTCACTATGTGCCTGGCAAGCATATCTGAGAAGGTGTTCCGCTGTGGCTGCCAACCTGGTGACAGGTGCCCCAGTGTGCGTAACCTTCTTCCGTCTCCGGACGGTAGTGATTGGTTAAGATTTGGTGTAAGGTTCATGTGCCAACGCCCTGTGCGGGATGAAACCTCTACTGCCCTAGGAATGCCAGGCAGGTACCCCACCTCCGGGTGGGATCTGAGCCTGGGCTAATTGTCTACGGGTAGTTTCATTTCCAATCCTTTTATGTCGGAGTC
modifications: source: /note="Description of Unknown: A73-675 sequence"
B2: 18-675 (nucleic acid)
DNA: CCCACAGCAAGAATGCCATCATCTGTCCTCACCCCCAATTTTCCCTTTTCTTCCCCTGCAACCATTACGCTTACTCGCATGTGCATTGAGTGGTGCATGTGTTGAACAAACAGCTACACTCACATGGGGGCGGGTTTTCCCGCCCTACGGCCTCTCGCGAGGCCCACCCCTTCCCTCCCCTTATAACTACAGTGCTTTGGTAGGTAAGCATCCTGATCCCCCGCGGAAGCTGCTCACGTGGCAACTGTGGGGACCCAGACAGGTTATCAAAGGCACCCGGTCTTTCCGCCTTCAGGAGTATCCCTACTAGTGAATTCTAGCGGGGCTCTGCTTGGTGCCAACCTCCCCCAAATGCGCGCTGCGGGAGTGCTCTTCCCCAACTCACCCTAGTATCCTCTCATGTGTGTGCTTGGTCAGCATATCTGAGACGATGTTCCGCTGTCCCAGACCAGTCCAGTAATGGACGGGCCAGTGCGTGTAGTCGTCTTCCGGCTTGTCCGGGGCATGTTTGGTGAACCGGTGGGGTAAGGTTGGTGTGCCCAACGCCCGTACTTTGGTGACACCTCAAGACCACCCAGGAATGCCAGGGAGGTACCCCACCTCACGGTGGGATCTGACCCTGGGCTAATTGTCTACGGTGGTTCTTCTTGCTTCCACTTCTTTCTTCTGTTCACG
modifications: source: /note="Description of Unknown: 18-675 sequence"
B3: Tropivirus A (nucleic acid)
DNA: TGTCGCATGTTGCCAACATCAAAATTCTGGGAGAGTCGCGAACTCCTTAACACTGCCTTGCCTCGACGGAGCCGTTGTTATAGTGTCGACGGGATACAAACATTAAACTAAACCCACTTGCCTCGACGGAACCCCTTACCTTTTATTTTATTTTATAGTATGAAAGTGAATCTTGTATGAATGTTCATAGAAAACTGCAAATGAGTACCACGTCTAACATGAGAGAATGATACTGGAGAAATCCAAGTTTAGAAGTCACTACGAATCCCAGCGGAAACAAGGGAATTCTGAGCTTCTAATAGGCGTTTAAGACTATTTGCAAAATTCTGGTGCGTAAGTGATATTTTCATTGCGTAGAACGCTGGTAACCACTCCGGCTAGTATAAGCATTGTTAGTCACTTATTATGAAACTCCACACTATCCTTTCTGGAGAAGCACACAAACTTACATGGTAAAGCTAGACCATTATCTTAAGCGGTGAGTACACTGCAACCTTGTAACAATGCTTGTATGACTACTTTTTGTATATCTTGAGCAATATTGTTGAGGTGGACATGTCCAAAGGTAATGTTGTTGGGAATGGAGGGGTCCATTTTCCCGTGCACGTAGTGTACTAGTATTGGGTGATAGCCTTGCGGCGGATCAACCATGTATTTTAATCCGTTGACTTTCAC
modifications: Tropivirus A

The molecules below were run on HEK293 cells. Settings: circular RNA encoding Gluc with the listed IRES (UTR truncated to 675 nt) transfected into HEK293 cells; supernatant after 24 hours.
Type: cell-based, human

Molecule	Expression (luminescence from secreted Gluc protein)
B1	1.30E+08
B2	6.04E+07
B3	9.52E+04
